Sequences and labels used below:
B1: GB1‐AtEIN2C^1215–1281 (domain or fragment)
chain: KGKCTTAVTLLDLIKDVEMAISCRKGRTGTAAGDVAFPKGKENLASVLKRYKRRLSNKPVGMNQDGP

The values below come from PMC12871931, “The importin‐alpha superfamily engages in ethylene signaling by shuttling ETHYLENE INSENSITIVE 2 from the endoplasmic reticulum to the nucleus” (The Febs Journal, 2025).

The assay has as its target ΔIBB_IMPα1 (importin α1 lacking the IBB domain), Arabidopsis thaliana, recombinant (Arabidopsis thaliana). Nature of the assay: BLI; Octet K2; biotinylated ΔIBB_IMPα1 or IMPα4 loaded (15 μM, 600 s) on streptavidin biosensors; peptides/protein in solution; 100 mM Tris pH 7.0, 100 mM KCl, 0.01% Tween 20; room temperature; 300 s association, 300 s dissociation; dose response curves, 1:2 heterogeneous ligand model. On the technique in general: BLI is a label-free optical method that tracks binding on a fibre tip over time.
As usually defined, the Kd is the concentration at which binding is half-saturated. With LKRYKRRL [NOP‐1 (EIN2 NLS peptide, EIN2 residues 1262–1269)], the Kd amounted to 2.5 µM.

KDVEMAISCRKGRTGTAAGDVAFPKGKENLASVLKRYKRRL [N41P‐1 (EIN2 residues 1229–1269)]: the Kd was found to be 8.1 µM.

For B1, the Kd worked out at 8.8 µM.
